Measurements taken from patent US7563864B2, “Prolyl endopeptidase mediated destruction of T cell epitopes in whole gluten” (Celiac Sprue Research Foundation, priority 2004, dated 2009).

Assays:
[1] = tested on: polyclonal T cell lines derived from small intestinal biopsies of Celiac Sprue patients; assay: T cell assays, 14 polyclonal T cell lines taken together; format: cell-based, human; settings: PEP in combination with gastric and pancreatic enzymes and brush border membrane enzymes; in most cases
Description: Gluten treatment with gastric and pancreatic enzymes—Wheat gluten flour (3.0 g) was added to 100 ml of water with addition of HCl to achieve a stable suspension at pH 2.0. Pepsin (Pepsin NF powder, 1:10000, 60 mg) was mixed in to the gluten suspension and the gluten-pepsin mixture was shaken constantly at 37° C. for 2 h. After the pepsin treatment had been completed, 350 mg of Na2HPO4 were added and the pH adjusted to 7.9 by addition of 0.1 M NaOH. Trypsin/Chymotrypsin (38 mg) were added and the mixture was shaken again at 37° C. for 2 h and then heated to >95° C. for 10 min. After cooling to room temperature, 74 μL of the mixture was treated with Elastase (20 μL, 1 mg/ml) and the mixture was diluted to 1.7 mg/ml using PBS buffer, pH=7.5. The mixture was maintained at 37° C. After 2 h the digested gluten suspension was heated to 95° C. for 10 minutes and cooled to room temperature. After this, 20 μL of Carboxypeptidase A were added and incubated for 2 h at 37° C., and subsequently heat deactivated. […]
T cell assays—The generation of polyclonal gluten-specific T cell lines derived from ex vivo gluten challenged small intestinal biopsy specimens of adult Celiac Sprue patients have been described elsewhere. […] The proliferation in the wells was evaluated by ^3H thymidine incorporation from 48-72 hours after the addition of the T cells.

TCC 387 E9 = assay: T cell clone assay, α-I specific clone; format: cell-based, human; settings: clone 387E9; FIGS. 6A and 6B; after 60 min PEP treatment
Description: (§1) Prolyl endopeptidase (PEP) and Brush Border Membrane (BBM) treatment—Recombinant PEP (Sp. Act ˜40 U/mg) was added at a ratio of 200 mU/mg of the PTC-digested gluten substrate, and incubated at 37° C. for 15 min to 1 h and then heat de-activated, depending on the sample. Subsequently BBM (65 mU (DPP IV activity)/mg substrate) was added and the mixture was incubated for 1 h and heat de-activated. Control samples contained PEP and BBM buffer solutions without the enzymes.
(§2) T cell assays—The generation of polyclonal gluten-specific T cell lines derived from ex vivo gluten challenged small intestinal biopsy specimens of adult Celiac Sprue patients have been described elsewhere. For this study 14 different intestinal T cell lines derived from 13 DQ2+celiac patients were selected based on two basic criteria; effective recognition of TG2-treated digests of gluten and significant responses to at least two different gluten epitopes (Table 2). The generation of intestinal T cell clones and the epitope specificity of these clones, except TCC 387.3, has been described elsewhere (10). The TCC 387.3 recognizes a TG2-dependent epitope, defined as γ-VI that is contained within residues 62-72 (PQQPFPQQPQQ) of recombinant γ-5 gliadin. […] The proliferation in the wells was evaluated by ^3H thymidine incorporation from 48-72 hours after the addition of the T cells.

T cell clone 430.1.135 = assay: T cell clone assay, α-II specific clone; format: cell-based, human; settings: FIGS. 6A and 6B
Description: as §1, §2

TCC 370 E3.19 = assay: T cell clone assay, α-III specific clone; format: cell-based, human; settings: clone 370E3.19; FIGS. 6A and 6B
Description: as §1, §2

TCC 387.3 = assay: T cell clone assay, γ-VI specific clone; format: cell-based, human; settings: FIG. 6B
Description: as §1, §2

PEP activity assay = format: biochemical; settings: recombinant PEP; pH 7.5, 37° C.
Description: Carboxypeptidase A: 995 μL 1.0 mM Hippuryl-L-Phe in 25 mM Tris and 500 mM NaCl, pH 7.5 was mixed with 5 μL Carboxypeptidase A (0.2 mg/ml). Absorption at 254 nm was recorded for 2′, every 10″. One unit hydrolyzes 1 μmol of Hippuryl-L-Phe per min at pH 7.5 and 25° C. Extinction coefficient 0.36 cm^2/μmol at 254 nm. PEP: To 10 μL Z-Gly-Pro-p-Nitroanilide 16.8 mg/ml in dioxane were added 70 μL dioxane, 120 μL water and 800 μL PBS buffer. This substrate solution was incubated at 37° C. for 10′; then 0.2-2 μL PEP were added and the absorption at 410 nm was recorded for 2′, every 10″. One unit hydrolyzes 1 μmol of Z-Gly-Pro-p-Nitroanilide per min at pH 7.5 and 37° C. Extinction coefficient 8.8 cm^2/μmol at 410 nm.

B1: PEP: Recombinant prolyl endopeptidase, Flavobacterium meningosepticum enzyme (protein, UniProt P27028 21-705, looked up)
Prolyl endopeptidase: QNSNVLKYPETKKVSHTDTYFGTQVSDPYRWLEDDRAEDTKAWVQQEVKFTQDYLAQIPFRDQLKKQLMDIWNYEKISAPFKKGKYTYFSKNDGLQAQSVLYRKDAAGKTEVFLDPNKFSEKGTTSLASVSFNKKGTLVAYSISEGGSDWNKIIILDAETKKQLDETLLDVKFSGISWLGDEGFFYSSYDKPKEGSVLSGMTDKHKVYFHKLGTKQSQDELIIGGDKFPRRYIGAYVTDDQRYLVVSAANATNGNELYIKDLKNKTDFIPIITGFDSNVNVADTDGDTLYLFTDKDAPNKRLVKTTIQNPKAETWKDVIAETSEPLEINTGGGYFFATYMKDAIDQVKQYDKNGKLVRAIKLPGSGNASGFGGEKTEKDLYYSFTNYITPPTIFKYNVTTGNSEVYQKPKVKFNPENYVSEQVFYTSSDGTKIPMMISYKKGLKKDGKNPTILYSYGGFNISLQPAFSVVNAIWMENGGIYAVPNIRGGGEYGKKWHDAGTKMQKKNVFNDFIAAGEYLQKNGYTSKEYMALSGRSNGGLLVGATMTMRPDLAKVAFPGVGVLDMLRYNKFTAGAGWAYDYGTAEDSKEMFEYLKSYSPVHNVKAGTCYPSTMVITSDHDDRVVPAHSFKFGSELQAKQSCKNPILIRIETNAGHGAGRSTEQVVAENADLLSFALYEMGIKSLK
immune response of patient derived intestinal T cells, relative to the response induced by positive controls [1]: less than 2% | T cell clone response to treated gluten: destruction of the α-I epitope (TCC 387 E9): retains some activity | T cell clone response to treated gluten: destruction of the α-II epitope (T cell clone 430.1.135): almost completely destroyed at the earliest time point | T cell clone response to treated gluten: destruction of the α-III epitope (TCC 370 E3.19): almost completely destroyed at the earliest time point | T cell clone response to treated gluten: destruction of the γ-VI epitope (TCC 387.3): persist for longer durations | specific activity (Sp. Act) (PEP activity assay): ~40 U/mg
